In paper doi:10.1101/2021.02.05.429362:

What was measured:
GFP-USP10(1-28) = GFP-USP10(1-28) (UniProt Q14694); assay: ITC; conditions: 25°C, 150 mM NaCl, 10 mM MgCl2
GFP-Caprin-1(356-386) = GFP-Caprin-1(356-386) (UniProt Q14444); assay: ITC; conditions: 25°C, 150 mM NaCl, 10 mM MgCl2

Q: What does the source list for G3BP1 NTF2-like domain (G3BP1-NTF2)?
A: KD (GFP-USP10(1-28); pH 5.6): 0.5 μM (0.3 / 0.7); KD (GFP-USP10(1-28); pH 7.4): 1.5 ± 0.5 µM; KD (GFP-Caprin-1(356-386); pH 5.6): 1.4 μM (1.1 / 1.7); KD (GFP-Caprin-1(356-386); pH 7.4): 4 ± 2 µM
